Numbered stars: 1 amine (or outer) side, 2 acyl side, 3 side chain; on linkers, the order of the positions; unused ones are H or OH. Square brackets hold non-standard residues; d marks the D form. Side chains are listed from the residue outwards. * marks the point of attachment. γGlu = O=C(O)[C@H](CCC(=O)[*:2])N[*:1]; Palmitoyl = CCCCCCCCCCCCCCCC(=O)*; Aib = CC(C)(N)C(=O)O
T1: human GIP receptor (human, UniProt P48546 22-466)
T1 sequence (looked up): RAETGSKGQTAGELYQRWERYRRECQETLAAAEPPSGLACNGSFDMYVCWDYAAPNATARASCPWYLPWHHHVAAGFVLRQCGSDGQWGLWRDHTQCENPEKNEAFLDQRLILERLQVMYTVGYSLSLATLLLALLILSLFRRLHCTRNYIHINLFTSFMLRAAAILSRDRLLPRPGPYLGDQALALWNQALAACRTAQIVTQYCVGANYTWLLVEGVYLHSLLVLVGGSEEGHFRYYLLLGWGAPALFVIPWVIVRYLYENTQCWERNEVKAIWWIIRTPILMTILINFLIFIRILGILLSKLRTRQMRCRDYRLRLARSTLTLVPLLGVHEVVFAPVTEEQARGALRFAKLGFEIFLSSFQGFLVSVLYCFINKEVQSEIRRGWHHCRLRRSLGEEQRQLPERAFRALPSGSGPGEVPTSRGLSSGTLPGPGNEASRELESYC

B1: Compound 44 (peptide)
peptide: H-Y[Aib]EGTFTSDYSIYLDSKAAHDFVEWLLRA-NH2
SMILES: CC[C@H](C)[C@H](NC(=O)[C@H](CO)NC(=O)[C@H](Cc1ccc(O)cc1)NC(=O)[C@H](CC(=O)O)NC(=O)[C@H](CO)NC(=O)[C@@H](NC(=O)[C@H](Cc1ccccc1)NC(=O)[C@@H](NC(=O)CNC(=O)[C@H](CCC(=O)O)NC(=O)C(C)(C)NC(=O)[C@@H](N)Cc1ccc(O)cc1)[C@@H](C)O)[C@@H](C)O)C(=O)N[C@@H](Cc1ccc(O)cc1)C(=O)N[C@@H](CC(C)C)C(=O)N[C@@H](CC(=O)O)C(=O)N[C@@H](CO)C(=O)N[C@@H](CCCCN)C(=O)N[C@@H](C)C(=O)N[C@@H](C)C(=O)N[C@@H](Cc1c[nH]cn1)C(=O)N[C@@H](CC(=O)O)C(=O)N[C@@H](Cc1ccccc1)C(=O)N[C@H](C(=O)N[C@@H](CCC(=O)O)C(=O)N[C@@H](Cc1c[nH]c2ccccc12)C(=O)N[C@@H](CC(C)C)C(=O)N[C@@H](CC(C)C)C(=O)N[C@@H](CCCNC(=N)N)C(=O)N[C@@H](C)C(N)=O)C(C)C
B2: Compound 46 (peptide)
peptide: H-Y[Aib]EGTFTSDYSIYLEKK([γGlu-Palmitoyl])AAKEFVEWLLSA-NH2
SMILES: CCCCCCCCCCCCCCCC(=O)N[C@@H](CCC(=O)NCCCC[C@H](NC(=O)[C@H](CCCCN)NC(=O)[C@H](CCC(=O)O)NC(=O)[C@H](CC(C)C)NC(=O)[C@H](Cc1ccc(O)cc1)NC(=O)[C@@H](NC(=O)[C@H](CO)NC(=O)[C@H](Cc1ccc(O)cc1)NC(=O)[C@H](CC(=O)O)NC(=O)[C@H](CO)NC(=O)[C@@H](NC(=O)[C@H](Cc1ccccc1)NC(=O)[C@@H](NC(=O)CNC(=O)[C@H](CCC(=O)O)NC(=O)C(C)(C)NC(=O)[C@@H](N)Cc1ccc(O)cc1)[C@@H](C)O)[C@@H](C)O)[C@@H](C)CC)C(=O)N[C@@H](C)C(=O)N[C@@H](C)C(=O)N[C@@H](CCCCN)C(=O)N[C@@H](CCC(=O)O)C(=O)N[C@@H](Cc1ccccc1)C(=O)N[C@H](C(=O)N[C@@H](CCC(=O)O)C(=O)N[C@@H](Cc1c[nH]c2ccccc12)C(=O)N[C@@H](CC(C)C)C(=O)N[C@@H](CC(C)C)C(=O)N[C@@H](CO)C(=O)N[C@@H](C)C(N)=O)C(C)C)C(=O)O
B3: Compound 43 (peptide)
peptide: H-Y[Aib]EGTFTSDYSIYLEKKAAKEFVEWLLSA-NH2
SMILES: CC[C@H](C)[C@H](NC(=O)[C@H](CO)NC(=O)[C@H](Cc1ccc(O)cc1)NC(=O)[C@H](CC(=O)O)NC(=O)[C@H](CO)NC(=O)[C@@H](NC(=O)[C@H](Cc1ccccc1)NC(=O)[C@@H](NC(=O)CNC(=O)[C@H](CCC(=O)O)NC(=O)C(C)(C)NC(=O)[C@@H](N)Cc1ccc(O)cc1)[C@@H](C)O)[C@@H](C)O)C(=O)N[C@@H](Cc1ccc(O)cc1)C(=O)N[C@@H](CC(C)C)C(=O)N[C@@H](CCC(=O)O)C(=O)N[C@@H](CCCCN)C(=O)N[C@@H](CCCCN)C(=O)N[C@@H](C)C(=O)N[C@@H](C)C(=O)N[C@@H](CCCCN)C(=O)N[C@@H](CCC(=O)O)C(=O)N[C@@H](Cc1ccccc1)C(=O)N[C@H](C(=O)N[C@@H](CCC(=O)O)C(=O)N[C@@H](Cc1c[nH]c2ccccc12)C(=O)N[C@@H](CC(C)C)C(=O)N[C@@H](CC(C)C)C(=O)N[C@@H](CO)C(=O)N[C@@H](C)C(N)=O)C(C)C
B4: Compound 39 (peptide)
peptide: H-Y[Aib]EGTFTSDYSIYLEKKAQKEFVEWLLSA-NH2
SMILES: CC[C@H](C)[C@H](NC(=O)[C@H](CO)NC(=O)[C@H](Cc1ccc(O)cc1)NC(=O)[C@H](CC(=O)O)NC(=O)[C@H](CO)NC(=O)[C@@H](NC(=O)[C@H](Cc1ccccc1)NC(=O)[C@@H](NC(=O)CNC(=O)[C@H](CCC(=O)O)NC(=O)C(C)(C)NC(=O)[C@@H](N)Cc1ccc(O)cc1)[C@@H](C)O)[C@@H](C)O)C(=O)N[C@@H](Cc1ccc(O)cc1)C(=O)N[C@@H](CC(C)C)C(=O)N[C@@H](CCC(=O)O)C(=O)N[C@@H](CCCCN)C(=O)N[C@@H](CCCCN)C(=O)N[C@@H](C)C(=O)N[C@@H](CCC(N)=O)C(=O)N[C@@H](CCCCN)C(=O)N[C@@H](CCC(=O)O)C(=O)N[C@@H](Cc1ccccc1)C(=O)N[C@H](C(=O)N[C@@H](CCC(=O)O)C(=O)N[C@@H](Cc1c[nH]c2ccccc12)C(=O)N[C@@H](CC(C)C)C(=O)N[C@@H](CC(C)C)C(=O)N[C@@H](CO)C(=O)N[C@@H](C)C(N)=O)C(C)C
B5: Compound 40 (peptide)
peptide: H-Y[Aib]EGTFTSDYSIYLDEKAAKDFVEWLLSA-NH2
SMILES: CC[C@H](C)[C@H](NC(=O)[C@H](CO)NC(=O)[C@H](Cc1ccc(O)cc1)NC(=O)[C@H](CC(=O)O)NC(=O)[C@H](CO)NC(=O)[C@@H](NC(=O)[C@H](Cc1ccccc1)NC(=O)[C@@H](NC(=O)CNC(=O)[C@H](CCC(=O)O)NC(=O)C(C)(C)NC(=O)[C@@H](N)Cc1ccc(O)cc1)[C@@H](C)O)[C@@H](C)O)C(=O)N[C@@H](Cc1ccc(O)cc1)C(=O)N[C@@H](CC(C)C)C(=O)N[C@@H](CC(=O)O)C(=O)N[C@@H](CCC(=O)O)C(=O)N[C@@H](CCCCN)C(=O)N[C@@H](C)C(=O)N[C@@H](C)C(=O)N[C@@H](CCCCN)C(=O)N[C@@H](CC(=O)O)C(=O)N[C@@H](Cc1ccccc1)C(=O)N[C@H](C(=O)N[C@@H](CCC(=O)O)C(=O)N[C@@H](Cc1c[nH]c2ccccc12)C(=O)N[C@@H](CC(C)C)C(=O)N[C@@H](CC(C)C)C(=O)N[C@@H](CO)C(=O)N[C@@H](C)C(N)=O)C(C)C
B6: Compound 45 (peptide)
peptide: H-Y[Aib]EGTFTSDYSKYLDSK([γGlu-Palmitoyl])AAHDFVEWLLSA-NH2
SMILES: CCCCCCCCCCCCCCCC(=O)N[C@@H](CCC(=O)NCCCC[C@H](NC(=O)[C@H](CO)NC(=O)[C@H](CC(=O)O)NC(=O)[C@H](CC(C)C)NC(=O)[C@H](Cc1ccc(O)cc1)NC(=O)[C@H](CCCCN)NC(=O)[C@H](CO)NC(=O)[C@H](Cc1ccc(O)cc1)NC(=O)[C@H](CC(=O)O)NC(=O)[C@H](CO)NC(=O)[C@@H](NC(=O)[C@H](Cc1ccccc1)NC(=O)[C@@H](NC(=O)CNC(=O)[C@H](CCC(=O)O)NC(=O)C(C)(C)NC(=O)[C@@H](N)Cc1ccc(O)cc1)[C@@H](C)O)[C@@H](C)O)C(=O)N[C@@H](C)C(=O)N[C@@H](C)C(=O)N[C@@H](Cc1c[nH]cn1)C(=O)N[C@@H](CC(=O)O)C(=O)N[C@@H](Cc1ccccc1)C(=O)N[C@H](C(=O)N[C@@H](CCC(=O)O)C(=O)N[C@@H](Cc1c[nH]c2ccccc12)C(=O)N[C@@H](CC(C)C)C(=O)N[C@@H](CC(C)C)C(=O)N[C@@H](CO)C(=O)N[C@@H](C)C(N)=O)C(C)C)C(=O)O
B7: Compound 41 (peptide)
peptide: H-Y[Aib]EGTFTSDYSIYLESKAAHDFVEWLLSA-NH2
SMILES: CC[C@H](C)[C@H](NC(=O)[C@H](CO)NC(=O)[C@H](Cc1ccc(O)cc1)NC(=O)[C@H](CC(=O)O)NC(=O)[C@H](CO)NC(=O)[C@@H](NC(=O)[C@H](Cc1ccccc1)NC(=O)[C@@H](NC(=O)CNC(=O)[C@H](CCC(=O)O)NC(=O)C(C)(C)NC(=O)[C@@H](N)Cc1ccc(O)cc1)[C@@H](C)O)[C@@H](C)O)C(=O)N[C@@H](Cc1ccc(O)cc1)C(=O)N[C@@H](CC(C)C)C(=O)N[C@@H](CCC(=O)O)C(=O)N[C@@H](CO)C(=O)N[C@@H](CCCCN)C(=O)N[C@@H](C)C(=O)N[C@@H](C)C(=O)N[C@@H](Cc1c[nH]cn1)C(=O)N[C@@H](CC(=O)O)C(=O)N[C@@H](Cc1ccccc1)C(=O)N[C@H](C(=O)N[C@@H](CCC(=O)O)C(=O)N[C@@H](Cc1c[nH]c2ccccc12)C(=O)N[C@@H](CC(C)C)C(=O)N[C@@H](CC(C)C)C(=O)N[C@@H](CO)C(=O)N[C@@H](C)C(N)=O)C(C)C
B8: Compound 42 (peptide)
peptide: H-Y[Aib]EGTFTSDYSIYLDKKAAHDFVEWLLSA-NH2
SMILES: CC[C@H](C)[C@H](NC(=O)[C@H](CO)NC(=O)[C@H](Cc1ccc(O)cc1)NC(=O)[C@H](CC(=O)O)NC(=O)[C@H](CO)NC(=O)[C@@H](NC(=O)[C@H](Cc1ccccc1)NC(=O)[C@@H](NC(=O)CNC(=O)[C@H](CCC(=O)O)NC(=O)C(C)(C)NC(=O)[C@@H](N)Cc1ccc(O)cc1)[C@@H](C)O)[C@@H](C)O)C(=O)N[C@@H](Cc1ccc(O)cc1)C(=O)N[C@@H](CC(C)C)C(=O)N[C@@H](CC(=O)O)C(=O)N[C@@H](CCCCN)C(=O)N[C@@H](CCCCN)C(=O)N[C@@H](C)C(=O)N[C@@H](C)C(=O)N[C@@H](Cc1c[nH]cn1)C(=O)N[C@@H](CC(=O)O)C(=O)N[C@@H](Cc1ccccc1)C(=O)N[C@H](C(=O)N[C@@H](CCC(=O)O)C(=O)N[C@@H](Cc1c[nH]c2ccccc12)C(=O)N[C@@H](CC(C)C)C(=O)N[C@@H](CC(C)C)C(=O)N[C@@H](CO)C(=O)N[C@@H](C)C(N)=O)C(C)C

Tests used:
human GLP-1 receptor = human GLP-1 receptor (human, UniProt P43220 24-463); test: cell-based or functional assay
human GIP receptor = target: T1, human GIP receptor; test: cell-based or functional assay

EC50, cAMP induction in HEK293 cells expressing human GLP-1 R (human GLP-1 receptor)	EC50, cAMP induction in HEK293 cells expressing human GIP R (human GIP receptor)	Binder
0.013 nM	0.016 nM	B1
0.048 nM	0.088 nM	B2
0.017 nM	0.0091 nM	B3
0.011 nM	0.0083 nM	B4
0.022 nM	0.011 nM	B5
0.11 nM	0.32 nM	B6
0.011 nM	0.013 nM	B7
0.012 nM	0.007 nM	B8

From patent publication US20150299281A1 (ZEALAND PHARMA A S, published 2015)
